For experiment [1], the target named is T1, recombinant human GDF-15 (human, UniProt Q99988 195-308).
T1 sequence (looked up): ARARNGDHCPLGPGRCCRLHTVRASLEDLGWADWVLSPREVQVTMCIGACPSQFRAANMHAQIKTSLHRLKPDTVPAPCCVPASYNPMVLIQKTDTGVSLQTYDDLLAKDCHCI
In words: cell-based or functional assay.

Experiment [2] deals with T1, recombinant human GDF-15. The experiment in a line: SPR, Biacore T3000; CTL-002 on immobilized anti-human IgG Fc antibody, GDF-15 injected. The protocol:
(§1) In addition, the affinity to cynomolgus rat and mouse GDF-15 was measured (see Table 2).
(§2) All experiments were performed in 10 mM HEPES buffer, pH 7.4, 150 mM NaCl, 3.4 mM EDTA and 0.05% Tween. anti-human IgG Fc specific antibody (Jackson, Order #109-005-008, Lot #111148) was covalently immobilized by EDC/NHS chemistry on Biacore CM5 Chips (GE Healthcare, Order #61144275, Lot #10236645). For kinetic characterization of the antigen-antibody interaction pulses of increasing GDF-15 concentrations (e.g. 156.3 pM, 312 pM, 625 pM, 1,250 pM) were injected at a flow rate of 30 μl/min. After each measurement cycle (8 min of association followed by 30 min of dissociation) the antibody-antigen complex was resolved by regeneration of the surface with 10 mM glycine-HCl at pH 2.0. […] For global fit analysis only, these antigen concentrations were taken into account, which allowed the analysis following the Langmuir 1:1 binding model or 1:1 binding with drifting baseline.
On the technique in general: In SPR one partner is held on a chip, and binding of the other changes the refractive index at the surface.

Experiment [3] addresses T2, cynomolgus GDF-15 (cynomolgus monkey, UniProt G7PWZ3 193-308, limits assumed).
T2 construct: also called NHP GDF-15
T2 sequence (looked up): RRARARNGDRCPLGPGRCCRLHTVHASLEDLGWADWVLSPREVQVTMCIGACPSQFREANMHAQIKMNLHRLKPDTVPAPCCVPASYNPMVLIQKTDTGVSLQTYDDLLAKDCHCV
Described as above. The protocol: as §1, §2

A further experiment deals with T3, rat GDF-15 (rat, UniProt Q9Z0J6 189-303).
T3 sequence (looked up): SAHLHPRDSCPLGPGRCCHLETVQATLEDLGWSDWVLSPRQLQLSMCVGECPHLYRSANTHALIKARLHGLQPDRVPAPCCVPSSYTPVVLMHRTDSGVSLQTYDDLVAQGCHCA
Described as above. The protocol: as §1, §2

In a further experiment the target is T4, mouse GDF-15 (mouse, UniProt Q9Z0J7 189-303).
T4 construct: also called murine GDF-15
T4 sequence (looked up): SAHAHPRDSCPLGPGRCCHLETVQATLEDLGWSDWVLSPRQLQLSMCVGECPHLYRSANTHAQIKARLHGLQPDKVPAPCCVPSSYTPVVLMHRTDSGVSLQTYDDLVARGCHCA
Described as above. The protocol:
as §1, §2

In experiment [4] the target is human complement protein C1q (human, UniProt P02745 23-245; P02746 28-253; P02747 29-245). The experiment in a line: ELISA, antibody incubated on coated human GDF-15, then 10 µg/ml human C1q, detection with HRP-conjugated anti-C1q antibody. The protocol: Interaction of C1q protein and therapeutic antibody was determined in an ELISA-based approach with 10 μg/ml human C1q protein using a HRP-conjugated anti-C1q antibody for detection. Here, CTL-001 and the different isotype variants were incubated to prior coated human GDF-15 protein before C1q binding was obtained. Experiment was performed in triplicated and mean of absorption (A450 nm) was plotted against the antibody concentration.
Background: An ELISA detects its analyte on a solid surface through an enzyme-linked reagent.

Experiment [5] concerns the target T2, cynomolgus GDF-15. The experiment in a line: KD from PK-PD model fitted to in vivo NHP data (not a direct binding assay); in vivo KD fitted by the NHP PK-PD model, not an in vitro binding assay.
Experiment [6] concerns the target T1, recombinant human GDF-15. In words: SPR (Biacore T3000): CTL-002 on the flow cell (per paragraph 142 an anti-human IgG Fc antibody is immobilized on the CM5 chip), human GDF-15 injected at 247, 370, 556, 833 and 1250 pM, global fit; one representative measurement of three. The procedure: as §2

Sequence of human complement protein C1q (P02745 23-245 limits assumed, chain 1 of 3): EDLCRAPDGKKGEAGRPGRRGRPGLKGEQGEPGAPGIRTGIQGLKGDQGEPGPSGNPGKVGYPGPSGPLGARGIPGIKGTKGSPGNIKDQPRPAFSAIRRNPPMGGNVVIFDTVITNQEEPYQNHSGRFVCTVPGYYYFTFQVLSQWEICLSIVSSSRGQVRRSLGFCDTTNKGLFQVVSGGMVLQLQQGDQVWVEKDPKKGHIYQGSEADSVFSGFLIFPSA
Sequence of human complement protein C1q (P02746 28-253 limits assumed, chain 2 of 3): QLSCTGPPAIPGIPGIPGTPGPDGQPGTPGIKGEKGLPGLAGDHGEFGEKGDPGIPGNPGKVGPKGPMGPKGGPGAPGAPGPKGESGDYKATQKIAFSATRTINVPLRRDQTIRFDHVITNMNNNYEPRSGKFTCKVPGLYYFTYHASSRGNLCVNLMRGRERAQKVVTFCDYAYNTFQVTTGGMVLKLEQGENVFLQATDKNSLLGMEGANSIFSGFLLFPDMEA
Sequence of human complement protein C1q (P02747 29-245 limits assumed, chain 3 of 3): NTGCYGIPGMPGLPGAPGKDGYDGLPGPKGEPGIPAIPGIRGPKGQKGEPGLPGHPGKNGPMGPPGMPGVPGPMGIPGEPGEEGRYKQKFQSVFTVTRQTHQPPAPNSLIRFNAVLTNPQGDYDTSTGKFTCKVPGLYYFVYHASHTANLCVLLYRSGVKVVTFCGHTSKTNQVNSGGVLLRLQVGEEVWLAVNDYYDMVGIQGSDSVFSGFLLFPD

B1: CTL-002 (antibody, human IgG4 S228P, kappa)
heavy: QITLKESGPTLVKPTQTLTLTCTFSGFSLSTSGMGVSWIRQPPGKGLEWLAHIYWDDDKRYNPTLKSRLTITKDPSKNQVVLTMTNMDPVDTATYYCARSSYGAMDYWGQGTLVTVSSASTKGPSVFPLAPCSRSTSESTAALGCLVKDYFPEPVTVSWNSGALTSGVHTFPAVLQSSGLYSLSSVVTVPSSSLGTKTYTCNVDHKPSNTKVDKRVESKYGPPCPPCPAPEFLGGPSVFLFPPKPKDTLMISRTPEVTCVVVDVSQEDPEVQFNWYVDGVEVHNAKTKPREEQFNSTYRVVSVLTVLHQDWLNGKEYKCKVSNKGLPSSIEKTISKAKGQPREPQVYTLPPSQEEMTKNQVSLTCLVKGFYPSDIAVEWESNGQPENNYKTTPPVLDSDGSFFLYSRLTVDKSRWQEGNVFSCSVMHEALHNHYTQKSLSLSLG
light: DIVLTQSPSFLSASVGDRVTITCKASQNVGTNVAWFQQKPGKSPKALIYSASYRYSGVPDRFTGSGSGTEFTLTISSLQPEDFAAYFCQQYNNFPYTFGGGTKLEIKRTVAAPSVFIFPPSDEQLKSGTASVVCLLNNFYPREAKVQWKVDNALQSGNSQESVTEQDSKDSTYSLSSTLTLSKADYEKHKVYACEVTHQGLSSPVTKSFNRGEC
notes: Humanized, hinge-stabilized IgG4 (IgG4 S228P) derived from mouse antibody B1-23; also called CTL-001 IgG4*; CTL-001 IgG4
What is called Kd is the equilibrium constant for the complex coming apart. Consider B1, for which the “EC50, rescue of CD8+ T-cell adhesion (flow-adhesion assay)” value with recombinant human GDF-15 [1] is approximately 0.7 µg/mL. Further, in the experiment with recombinant human GDF-15 [1], the “EC50, reversal of GDF-15 mediated inhibition of T cell adhesion (in vitro flow-adhesion assay, 50 ng/ml GDF-15)” value is 0.69 to 0.725 µg/mL. In the experiment with recombinant human GDF-15 [1], the “EC50 of CTL-002 in the flow-adhesion assay with T cells” value is 0.707 µg/mL. Also, the Kd in the experiment with recombinant human GDF-15 [2] turned out to be 0.0383 nM; in the experiment with cynomolgus GDF-15 [3], 0.108 nM; in the experiment with rat GDF-15, 0.449 nM; in the experiment with mouse GDF-15, 9.76 nM; with cynomolgus GDF-15 [5], 0.019 nM; with recombinant human GDF-15 [6], 0.0338 nM. The binding result in experiment [4] is recorded as “no binding (tested: about 25 µg/ml (leftmost visible marker))”.

B2: CTL-001 (antibody, human IgG1, kappa)
heavy: not shown
light: DIVLTQSPSFLSASVGDRVTITCKASQNVGTNVAWFQQKPGKSPKALIYSASYRYSGVPDRFTGSGSGTEFTLTISSLQPEDFAAYFCQQYNNFPYTFGGGTKLEIKRTVAAPSVFIFPPSDEQLKSGTASVVCLLNNFYPREAKVQWKVDNALQSGNSQESVTEQDSKDSTYSLSSTLTLSKADYEKHKVYACEVTHQGLSSPVTKSFNRGEC
notes: Humanized IgG1 with a kappa light chain; also called H1L5; B1-23-H1L5
Take B2: the binding result in experiment [4] is reported as “no binding (tested: about 25 µg/ml (leftmost visible marker))”.

The values above are taken from patent US20260055172A1 (CATALYM, published 2026).
